From paper PMC13391367 come the findings set out here.

The series deals with UAP56 (UniProt Q13838 1-428). Put plainly: pull-down (NeutrAvidin beads, RNA unclamping assay); ATP, 2 mM Mg2+; clamped UAP56-ADP-Pi-RNA complex, no release factor; RNA unclamping: 20 mM HEPES pH 7.9, 40 mM KCl, 2 mM MgCl2, 5% glycerol, 0.1% Igepal CA-630, 1 mM ATP at loading, room temperature, 500 mM KCl wash; cryo-EM: 25. As to conditions: protein: recombinant; tags: 10xHis-3C (N-term); single strand.
Sequence of UAP56 (Q13838 whole entry): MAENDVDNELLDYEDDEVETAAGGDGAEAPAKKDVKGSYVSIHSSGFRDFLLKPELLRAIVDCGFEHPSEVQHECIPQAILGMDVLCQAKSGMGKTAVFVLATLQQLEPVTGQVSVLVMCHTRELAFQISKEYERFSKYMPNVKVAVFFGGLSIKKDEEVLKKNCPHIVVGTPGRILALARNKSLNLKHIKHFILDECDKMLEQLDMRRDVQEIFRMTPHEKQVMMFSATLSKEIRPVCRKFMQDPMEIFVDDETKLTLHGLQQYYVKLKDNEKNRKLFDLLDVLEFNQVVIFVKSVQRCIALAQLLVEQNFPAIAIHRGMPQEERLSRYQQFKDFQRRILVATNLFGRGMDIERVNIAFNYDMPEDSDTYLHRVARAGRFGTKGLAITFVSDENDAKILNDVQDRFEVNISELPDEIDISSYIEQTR

Turning to UUUUUUUUUUUUUUU (ssRNA) [biotinylated 15U RNA], the binding result is “binds”.
